One molecule from patent US6602687B1, “DNA encoding human ciliary neurotrophic factor and method for producing the protein encoded thereby” (Regeneron Pharmaceuticals, Inc., priority 1989, dated 2003) can be followed below.

The subject of experiment [1] is E18-19 rat hippocampal neurons. Put plainly: Counts of NSE-, GAD-, calbindin- and acetylcholinesterase-positive cells in hippocampal cultures. The experiment is classed as cell-based. As to the method: Hippocampi were dissected from E18-19 rat embryos of Sprague-Dawley rats, and collected in F10 medium. The tissues were minced, rinsed twice with F10 medium (Gibco) and trypsinized with 0.25% trypsin (Gibco) for 20 minutes at 37° C. Trypsin was inactivated by the addition of a serum-containing medium composed of minimal essential medium (MEM) supplemented with fetal calf serum (FCS, 10%), glutamine (2 mM), penicillin (25 U/ml) and streptomycin (25 ug/ml). Dissociated cells obtained by gentle trituration were collected and centrifuged at low speed (500 rpm) for 30 seconds. The centrifugation was repeated twice, and the cell pellets were then resuspended in serum-containing medium. The cells were then plated onto 6 mm wells or 35 mm dishes that were coated with polyornithine (10 ug/ml) and laminin (10 ug/ml). In most of the experiments, the cells were plated at a low density of approximately 71,000 cells/cm^2. Five to six hours following the plating of cells, medium was changed to a serum-free medium containing 1% N3 and penicillin-streptomycin (25 units/ml and 25 ug/ml, respectively), at which time CNTF was added. Medium was changed every three to four days, with re-addition of the factor.
Cells were fixed with 4% paraformaldehyde for 30 minutes at room temperature, washed with PBS. For GAD staining, cells were permeabilized by sequential rinsing with 50%, 70% and 50% ethanol. The cultures were blocked by sequential rinsing with PBS containing 5% normal rabbit serum for one hour, and incubated with sheep anti-GAD antibody 1440 at a 1:6000 dilution) overnight at 4° C. Following three rinses with PBS, cells were then incubated with biotinylated rabbit anti-sheep antibody at a 1:400 dilution for at least 90 minutes at room temperature. For GABA staining, cells were permeabiized with Triton X-100 (0.25%) in Tris-HCl (0.1M, pH 7.3), and blocked with 10% normal goat serum for 90 minutes, prior to incubation with rabbit anti-GABA antibody (1:5000) ovenight at 4° C. Following three rinses with PBS, cells were then incubated with biotinylated goat anti-rabbit antibody at a 1:200 dilution for at least 90 minutes at room temperature. GAG- or GABA imminoreactive cells were visualized by using the Vectastain ABC kit (Vector Labs).
Following fixing with 4% paraformaldehyde, cells were blocked with 10% normal goat serum (NGS) in PBS containing 0.1% Triton X-100. The cells were then incubated with the primary antibody (rabbit anti-NSE, 1:5000) overnight at 4° C. The cells were then incubated with the secondary antibody (goat anti-rabit, 1:200 dilution) for at least 90 minutes at room temperature. NSE-immunopositive cells were visualized using the Vectastain ABC kit (Vector Labs).
Cells were rinsed twice with PBS, and fixed with 4% paraformaldehyde for 30 minutes at room temperature. […]

In the next experiment the test system is hippocampal neurons. Put plainly: Glutamate-induced toxicity in hippocampal cultures (MTT assay). The experiment is classed as cell-based, rat. The settings on record: in the presence of CNTF (10 ng/ml). As to the method: FIG. 38. Protective effect of CNTF on glutamate-induced toxicity in hippocampal cultures. […] Glutamate at various concentations (100-1000 uM) was added for 15 minutes, after which the cells were cultured in the absence of glutamate or CNTF for 20 h. Survival of cells at the end of the culture period was assessed by MTT assay based on the conversion of MTT (3-(4,5-dimethylthiazol-2-yl)-2,5-diphenyl tetrazolium bromide) to a purple product by vital cells. MTT dye was added to a final concentration of 0.5 mg/ml. Dyes taken up by live cells were solubilized by the addition of 0.08N HCI in isopropranol 5 hours later, and O.D. (570-650 nm) was measured.
The effect of CNTF on GABAergic neurons was dependent on the density at which the cells were plated. […] This may be due to an elevated level of neurotrophic factors in high density cultures. […] We have assessed the neurotoxic effects of various concentrations of glutamate (10-1000 μM) by means of a calorimetric MTT assay, as shown in FIG. 38. At a concentration of 1 mM, glutamate reduced cell survival to approximately 10%. In the presence of CNTF ([…]), cell survival following exposure to glutamate was enhanced.

Experiment [2] has as its system Mediodorsal (MD) spinal cord neurons. Kind of experiment: E14 rat mediodorsal spinal cord neuron cultures in defined medium. It counts as cell-based. An excerpt: Sprague-Dawley rats (HSD) were used for all experiments. Pregnant rats were sacrificed by carbon dioxide asphyxiation, and the embryos were rapidly removed and placed in ice-cold Puck's saline G for further dissection.
Spinal cords were removed aseptically from rat embryos on the 14th day of gestation. The spinal cord was severed caudal to the bulb, freed of sensory ganglia and meninges. The cord was then subdivided into ventral and mediodorsal segments for separate cultures. The cord tissues were minced into small pieces and mechanically dissociated by trituration through a Pasteur pipet in defined culture medium consisting of 50% basal medium Eagle (BME; Gibco) and 50% Ham's nutrient mixture F12 (Gibco) supplemented with glucose (33 mM), glutamine (2 mM, NaHCO3 (15 mM), HEPES (10 mM), insulin (25 μg/ml), transferrin (100 μg/ml) putrescine (60 μM), progesterone (20 nM), Na selenite (30 nM), penicillin G (0.5 μg/ml), streptomycin (0.5 μg/ml), and bovine serum albumin (2.5 μg/ml). Trituration was repeated twice and the supernatants were pooled and filtered through a nylon (Nitex, Tetko) filter (40 μm). Total cell number yielded was determined by hemocytometer counting in the presence of trypan blue. Dissociated ventral cells were then plated at a density of 0.5 million cells/35 mm dish coated with poly-D-lysine (10 μg/ml). Dissociated mediodorsal cells were plated at a density of 1.5 million/35 mm dish coated with poly-D-lysine (10 μg/ml), poly-L-ornithine (10 μg/ml), or poly-L-ornithine with laminin (5 μg/ml). Treatments to these cultures were added at the time of plating. Cultures were maintained at 37° C. in a 95% air/5% CO2 atmosphere at nearly 100% relative humidity. Culture medium was changed every three to four days.

The mark [3] stands for this setting: recombinant rat CNTF 10 ng/ml, 8 days.

B1: CNTF: ciliary neurotrophic factor; recombinant rat CNTF in Sections 10, 15, 17, purified rat sciatic nerve CNTF in Section 11; see endpoint conditions (protein, UniProt P20294 1-200, looked up)
Ciliary neurotrophic factor: MAFAEQTPLTLHRRDLCSRSIWLARKIRSDLTALMESYVKHQGLNKNINLDSVDGVPVASTDRWSEMTEAERLQENLQAYRTFQGMLTKLLEDQRVHFTPTEGDFHQAIHTLMLQVSAFAYQLEELMVLLEQKIPENEADGMPATVGDGGLFEKKLWGLKVLQELSQWTVRSIHDLRVISSHQMGISALESHYGAKDKQM
Regarding B1, in experiment [1] (setting [3]), the “increase in number of GAD-positive neurons” value is 2.3 fold and the “increase in number of NSE-positive neurons” value stood at 2.2 fold. The “increase in calbindin-immunopositive cells” value in experiment [1] (recombinant rat CNTF 10 ng/ml, low-density cultures) worked out at 3 fold. In experiment [1] (recombinant rat CNTF, after 8 days in culture), the “increase in number of acetylcholinesterase positive cells versus controls” value was “approximately 17 fold”. Besides, the “cell survival following exposure to glutamate” value with hippocampal neurons is on record as “enhanced”. In addition, in experiment [2] (20 ng recombinant rat CNTF in 2 μl E. coli extract per ml at plating, by 48 hours), the “survival of MD neurons” value is given as “increased survival”. In addition, the μg protein dish in experiment [2] (CNTF 2 μl/ml (recombinant rat, E. coli extract), NGF 50 ng/ml at plating, day 7, Bradford) was 120 μg protein dish. Further, the “protein/dish relative to untreated control and NGF-treated cultures” value in experiment [2] (recombinant rat CNTF in E. coli extract, day 7) was determined as 6 times.
